Data from CN111110862A.
Where “and” joins values, the source holds several entries; their conditions need not be identical. Equal values may be shown once.

Assays:
[1] = target: 人CLDN18.2(hCLDN18.2) (human) (UniProt P56856); assay: flow cytometry, CF488-labelled antibody 10μg/ml on hCLDN18.2+cell; range over the binding value and the time points
[2] = target: 人CLDN18.2(hCLDN18.2) (human) (UniProt P56856); assay: flow cytometry, CF633-labelled antibody 10μg/ml on hCLDN18.2+cell; range over the binding value and the time points
[3] = target: 鼠CLDN18.2(mCLDN18.2) (mouse) (UniProt P56857); assay: cell ELISA on fixed mCLDN18.2+cell; background
[4] = target: 人CLDN18.2(hCLDN18.2) (human) (UniProt P56856); assay: flow cytometry, CF633-labelled antibody 2.5μg/ml on hCLDN18.2+cell; background

UniProt P56857, sequence (P56857 other isoform, or with tags, fused parts or gaps, form in doubt): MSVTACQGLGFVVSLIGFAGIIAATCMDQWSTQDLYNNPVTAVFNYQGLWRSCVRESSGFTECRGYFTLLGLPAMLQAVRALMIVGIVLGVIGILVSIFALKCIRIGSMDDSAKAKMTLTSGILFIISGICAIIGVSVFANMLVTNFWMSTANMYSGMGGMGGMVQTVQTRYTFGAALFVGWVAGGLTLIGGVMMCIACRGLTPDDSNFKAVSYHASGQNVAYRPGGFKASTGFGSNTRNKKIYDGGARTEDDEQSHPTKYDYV

荧光强度值(本底) [1]: 1280 to 3480
荧光强度值(本底) [2]: 23.2 and 14.9
Emax [3]: 0.19
结合值 (FACS读值) [4]: 932
Substance: Neg IgG (和靶点没有结合的非特异性抗体) (antibody)
